From publication PMC4014440
Residue numbers refer to the chain shown, from its start. Names may count otherwise.

B1: PPM-2::GFP R185A (phosphatase trapping mutant of PPM-2) (enzyme)
chain: MGQTLSEPVTKKESASCANENYLVGSSCMQGWRVDMEDAHTHLLSLPDDPKCAFFAVYDGHGGSKVSQYSGINLHKKVVAQKEFSEGNMKEAIEKGFLELDQQMRVDEETKDDVSGTTAVVVLIKEGDVYCGNAGDSRAVSSVVGEARPLSFDHKPSHETEARRIIAAGGWVEFNRVNGNLALSAALGDFAFKNCDTKPAEEQIVTAFPDVITDKLTPDHEFIVLACDGIWDVMTNQEVVDFVREKLAEKRDPQSICEELLTRCLAPDCQMGGLGCDNMTVVLVGLLHGQSPDTLFTKCARPAVFTGVNNEDGDQNQIQQDISRVINNFDGEQRVNAANQEEEEDDNEPAPANFQV
B2: PPM-2::GFP (GFP fusion protein of wild-type PPM-2) (enzyme)
chain: B1 chain with A185R

Target: FLAG epitope tagged DLK-1 K162R (FLAG::DLK-1L K162R) (C. elegans)
Test: co-IP; FLAG::DLK-1 K162R immunoprecipitated from 5 mg of transgenic whole worm lysate (0.1% NP-40 lysis buffer); wild-type or mutant PPM-2::GFP detected by anti-GFP immunoblot; bands quantified with Image J as ratio of PPM-2::GFP in coIP to FLAG::DLK-1 K162R immunoprecipitated

| Binder | ratio of PPM-2::GFP in coIP to FLAG::DLK-1 K162R immunoprecipitated |
| --- | --- |
| B1 | 1.5 |
| B2 | 0.4 |
